Laboratory results published in patent publication JP2015097496A (dated 2015).
Where a chain is given by its changes, count along the chain named. In names and notes the source's numbering stands.

Key:
[1] = molecular target: T1, Robo1 IG5-2ドメイン(B5209B抗体が認識するイムノグロブリン様ドメインの5番目) (Homo sapiens (Human), UniProt Q9Y6N7 455-543); assay: ITC with molecular dynamics interpretation
T1 construct: Antigen fragment of Robo1 used in ITC and in the co-crystal structure
T1 sequence: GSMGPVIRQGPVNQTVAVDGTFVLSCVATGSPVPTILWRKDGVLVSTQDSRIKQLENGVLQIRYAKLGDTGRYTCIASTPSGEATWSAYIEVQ

[2] = molecular target: T1, Robo1 …; assay: ITC, thermodynamic parameters
[3] = molecular target: T1, Robo1 …; assay: co-crystal structure of scFv and IG5-2

B1: B5209B scFv HP103A変異体 (scFv)
scFv: QLVESGGGVVQPGGSLKLSCAASGFTFSTYDMSWVRQTPDKRLELVATINSNGGSTYYPDSVKGRFTSSRDNAKNILYLQMSSLKSEDTAMYYCAREALLRPAYYALDYWGQGTSVTVSSGGGGSGGGGSGGGGSGGGGSDIQMTQSPASLSASVGETVTITCGASENIYGALTWYQRKQGKSPQLLIYGAINLADDKSSRFSGSGSGRQYSLKISSLHPDDVATYYCQNVLSTPFTFGSGTKLEIKHHHHHH
- binding result [1]: binds

B2: B5209B scFv LY30A変異体 (scFv)
scFv: B1 scFv with A103P, Y170A
- binding result [2]: binds

B3: B5209B 一本鎖抗体(scFv) 野生型 (scFv)
scFv: MAEVQLVESGGGVVQPGGSLKLSCAASGFTFSTYDMSWVRQTPDKRLELVATINSNGGSTYYPDSVKGRFTSSRDNAKNILYLQMSSLKSEDTAMYYCAREALLRPPYYALDYWGQGTSVTVSSAGGGGSGGGGSGGGGSGGGGSDILDIQMTQSPASLSASVGETVTITCGASENIYGALTWYQRKQGKSPQLLIYGAINLADDKSSRFSGSGSGRQYSLKISSLHPDDVATYYCQNVLSTPFTFGSGTKLEIKAAGHHHHHH
notes: Expressed in E. coli Origami2(DE3) from pRA2; also called B5209B scFv; WT
- binding result [3]: binds
